Measurements: patent US20220064272A1 (TAUC3 BIOLOGICS, published 2022)
Substitutions are numbered along the chain they refer to. Values joined by “and” are separate entries in the source; they are usually repeats but may differ in a detail not shown here. Equal values may be shown once.

B1: Tau01 HMKM HuG4k (antibody, V domains shown)
VH: LVQLVESGGGLVQPGGSLKLSCAASGFTFNTYAMNWVRQASGKGLEWVARIRSKSNNYATYYAASVKGRFTISRDDSKSMAYLQMDSLKTEDTAVYYCVGGGDFWGQGTLVTVSS
VL: DIQMTQSPSSLSASVGDRVTITCRASQEISVYLSWFQQKPGKAIKRLIYGAFSLQSGVPSRFSGSRSGTEYTLTISSLQPEDFATYYCLQYVRYPWTFGGGTKVEIK
notes: human IgG4 kappa (HuG4K)
B2: Tau01 HMKA (antibody, V domains shown)
VH: B1 VH
VL: B1 VL with S34G, F36Y, I44P, S53K, Y71F
notes: human IgG4 kappa (HuG4K)
B3: Tau01 HMKB (antibody, V domains shown)
VH: B1 VH
VL: B1 VL with S53T, T69S
notes: human IgG4 kappa (HuG4K)
B4: Tau01 HMKC (antibody, V domains shown)
VH: B1 VH
VL: B1 VL with I44P, S53K
notes: human IgG4 kappa (HuG4K)
B5: Tau01 HMKG (antibody, V domains shown)
VH: B1 VH
VL: B1 VL with S34G, F36Y, I44P, S53T, Y71F
notes: human IgG4 kappa (HuG4K)
B6: Tau01 HMKI (antibody, V domains shown)
VH: B1 VH
VL: B1 VL with S34G, F36Y, I44P, S53K
notes: human IgG4 kappa (HuG4K)
B7: Tau01 HMKJ (antibody, V domains shown)
VH: B1 VH
VL: B1 VL with S34G, F36Y, I44P, Y71F
notes: human IgG4 kappa (HuG4K)
B8: Tau01 HCKI (antibody, V domains shown)
VH: B1 VH with A49G
VL: B1 VL with S34G, F36Y, I44P, S53K
notes: human IgG4 kappa (HuG4K)
B9: Tau01 HCKE (antibody, V domains shown)
VH: B1 VH with A49G
VL: B1 VL with S34G, I44P, S53K, Y71F
notes: human IgG4 kappa (HuG4K)
B10: Tau01 HCKG (antibody, V domains shown)
VH: B1 VH with A49G
VL: B1 VL with S34G, F36Y, I44P, S53T, Y71F
notes: human IgG4 kappa (HuG4K)
B11: Tau01 HCKJ (antibody, V domains shown)
VH: B1 VH with A49G
VL: B1 VL with S34G, F36Y, I44P, Y71F
notes: human IgG4 kappa (HuG4K)
B12: Tau01 HCKL (antibody, V domains shown)
VH: B1 VH with A49G
VL: B1 VL with S53K
notes: human IgG4 kappa (HuG4K)
B13: Tau01 HCKN (antibody, V domains shown)
VH: B1 VH with A49G
VL: B1 VL with S34G, F36Y, I44P, S53T
notes: human IgG4 kappa (HuG4K)
B14: Tau01 HCKO (antibody, V domains shown)
VH: B1 VH with A49G
VL: B1 VL with S34G, F36Y, I44P
notes: human IgG4 kappa (HuG4K)
B15: Tau01 HCKP (antibody, V domains shown)
VH: B1 VH with A49G
VL: B1 VL with S34G, I44P, S53K
notes: human IgG4 kappa (HuG4K)
B16: Tau01 HMKL (antibody, V domains shown)
VH: B1 VH
VL: B1 VL with S53K
notes: human IgG4 kappa (HuG4K)
B17: Tau01 HNKA (antibody, V domains shown)
VH: B1 VH with L4V, A49G
VL: B1 VL with S34G, F36Y, I44P, S53K, Y71F
notes: human IgG4 kappa (HuG4K)
B18: Tau01 HNKB (antibody, V domains shown)
VH: B1 VH with L4V, A49G
VL: B1 VL with S53T, T69S
notes: human IgG4 kappa (HuG4K)
B19: Tau01 HNKG (antibody, V domains shown)
VH: B1 VH with L4V, A49G
VL: B1 VL with S34G, F36Y, I44P, S53T, Y71F
notes: human IgG4 kappa (HuG4K)
B20: Tau01 HNKI (antibody, V domains shown)
VH: B1 VH with L4V, A49G
VL: B1 VL with S34G, F36Y, I44P, S53K
notes: human IgG4 kappa (HuG4K)
B21: Tau01 HNKJ (antibody, V domains shown)
VH: B1 VH with L4V, A49G
VL: B1 VL with S34G, F36Y, I44P, Y71F
notes: human IgG4 kappa (HuG4K)
B22: HBKD (antibody, V domains shown)
VH: B1 VH with L1E, L4V, A64D, A81V
VL: B1 VL with F36Y, I44P, S53K, Y71F
notes: humanized variant, HB with KD; also called Tau01 HBKD HuG4K
B23: HBKF (antibody, V domains shown)
VH: B1 VH with L1E, L4V, A64D, A81V
VL: B1 VL with S34G, F36Y, S53K, Y71F
notes: humanized variant, HB with KF; also called Tau01 HBKF HuG4K
B24: HBKH (antibody, V domains shown)
VH: B1 VH with L1E, L4V, A64D, A81V
VL: B1 VL with S34G, F36Y, I44P, S53K, T69S, Y71F
notes: humanized variant, HB with KH; also called Tau01 HBKH HuG4K
B25: Tau01 HBKE (antibody, V domains shown)
VH: B1 VH with L1E, L4V, A64D, A81V
VL: B1 VL with S34G, I44P, S53K, Y71F
notes: human IgG4 kappa (HuG4K)
B26: Tau01 HBKG (antibody, V domains shown)
VH: B1 VH with L1E, L4V, A64D, A81V
VL: B1 VL with S34G, F36Y, I44P, S53T, Y71F
notes: human IgG4 kappa (HuG4K)
B27: Tau01 HBKI (antibody, V domains shown)
VH: B1 VH with L1E, L4V, A64D, A81V
VL: B1 VL with S34G, F36Y, I44P, S53K
notes: human IgG4 kappa (HuG4K)
B28: Tau01 HBKJ (antibody, V domains shown)
VH: B1 VH with L1E, L4V, A64D, A81V
VL: B1 VL with S34G, F36Y, I44P, Y71F
notes: human IgG4 kappa (HuG4K)
B29: HCKD (antibody, V domains shown)
VH: B1 VH with A49G
VL: B1 VL with F36Y, I44P, S53K, Y71F
notes: humanized variant, HC with KD; also called Tau01 HCKD HuG4K
B30: HCKF (antibody, V domains shown)
VH: B1 VH with A49G
VL: B1 VL with S34G, F36Y, S53K, Y71F
notes: humanized variant, HC with KF; also called Tau01 HCKF HuG4K
B31: HCKH (antibody, V domains shown)
VH: B1 VH with A49G
VL: B1 VL with S34G, F36Y, I44P, S53K, T69S, Y71F
notes: humanized variant, HC with KH; also called Tau01 HCKH HuG4K

These binders were tested against T1, TauC3 (C-terminally truncated tau fragment ending at aspartate 421 of htau40) (human, UniProt P10636 1-738) (assay: SPR (Biacore) kinetics, TauC3 amine-coupled on CM5, 1:1 global fit).
T1 construct: Generated and purified by Genscript; also called Human TauC3; recombinant TauC3 protein
T1 sequence (P10636 other isoform, or with tags, fused parts or gaps): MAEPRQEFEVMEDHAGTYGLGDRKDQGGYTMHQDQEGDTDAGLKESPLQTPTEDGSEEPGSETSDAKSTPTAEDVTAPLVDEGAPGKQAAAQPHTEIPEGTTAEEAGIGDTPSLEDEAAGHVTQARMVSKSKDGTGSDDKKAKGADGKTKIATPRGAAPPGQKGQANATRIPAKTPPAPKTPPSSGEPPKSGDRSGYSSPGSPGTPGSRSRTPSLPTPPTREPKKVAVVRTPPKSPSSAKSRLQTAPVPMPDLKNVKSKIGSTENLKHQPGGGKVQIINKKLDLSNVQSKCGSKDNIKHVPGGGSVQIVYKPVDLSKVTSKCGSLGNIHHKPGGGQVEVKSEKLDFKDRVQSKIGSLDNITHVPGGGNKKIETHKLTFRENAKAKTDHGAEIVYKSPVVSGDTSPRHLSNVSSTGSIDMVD
Procedure, shortened: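 Surface plasmon resonance (Biacore) was used with purified TauC3 immobilised on a CM5 chip by amine coupling. A concentration series of each purified antibody was injected over the chip. Association rate, dissociation rate and Kd were obtained by a 1:1 global fit.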
B1 was tested, and the Kd was 0.11 nM, the koff was 0.0181 s⁻¹ and the kon was 1.65e+08 M⁻¹ s⁻¹.

Each binder was assayed against T1, TauC3 (C-terminally truncated tau …) (assay: Biacore off-rate ranking, TauC3 amine-coupled on CM5, one antibody concentration; two-phase decay fit, slow phase).
Design: unit not given here
Method: (§1) To further evaluate the binding data observed on the Octet, an off-rate ranking experiment was performed on the Biacore 200 instrument. Biacore offers greater selectivity than the Octet and facilitated the immobilization of TauC3 onto a CM5 chip via amine coupling which stabilizes the antigen. This produces higher quality data with stable baselines and good reproducible responses. Once TauC3 is immobilized, one concentration (5 nM) of antibody is added, followed by a dissociation and regeneration step (Section 8.20). The off-rates were fitted using a two-phase decay model (FIG. 25B) or a one phase decay fitting only the second off-rate (FIG. 25A). The candidates were then ranked based on the off-rates obtained using the fits and compared. The data agreed with the Octet results (albeit with a different ranking order), highlighting Tau01 HMKM, HMKO, HMKP, HMKN and HMKE as the humanized variants with the slowest off-rates. The lack of binding of FL Tau to chimeric and a humanized candidate was also confirmed by Biacore by loading the antibody onto a Protein G chip and adding 250 nM FL Tau.
B2 showed a Kslow of 0.000815.
For B3, the Kslow was 0.000138.
Binder B4 has a Kslow of 0.000711.
B5 was tested, and the Kslow was 0.000384.
Binder B6 has a Kslow of 0.00179.
For B7, the Kslow was 0.00123.
In the case of B1, the Kslow is reported as 0.000553.

These binders were tested against T1, TauC3 (C-terminally truncated tau …) (assay: binding ELISA on coated TauC3, OD650; left table (HC variants)).
Procedure, shortened: (§2)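 TauC3 antigen, made and purified by Genscript, was coated for a binding ELISA. The antibodies tested were chimeric or humanized IgG4κ expressed in ExpiCHO cells. Binding was recorded as absorbance at 650 nm, and EC50 came from the concentration-response of each antibody.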
Work on B8 yielded an EC50 of 0.655 nM.
B9 was tested, and the EC50 was 0.941 nM.
For B10, the EC50 was 0.573 nM.
Binder B11 has an EC50 of 0.766 nM.
For B12, the EC50 was 0.835 nM.
In the case of B13, the EC50 is reported as 0.574 nM.
Binder B14 has an EC50 of 0.537 nM.
B15 showed an EC50 of 0.821 nM.

These binders were tested against T1, TauC3 (C-terminally truncated tau …) (assay: binding ELISA on coated TauC3, OD650).
Procedure, shortened: as §2
Binder B2 has an EC50 of 0.556 nM.
B3 was tested, and the EC50 was 0.412 nM.
B5 showed an EC50 of 0.543 nM.
With B6 the EC50 was 0.549 nM.
For B7, the EC50 was 0.522 nM.

These binders were tested against T1, TauC3 (C-terminally truncated tau …) (assay: binding ELISA on coated TauC3, OD650; right table (HM variants)).
Procedure, shortened: as §2
Work on B10 yielded an EC50 of 0.573 nM.
B2 was tested, and the EC50 was 0.641 nM and 0.462 nM.
B4 was tested, and the EC50 was 0.433 nM and 0.718 nM.
For B5, the EC50 was 0.515 nM and 0.607 nM.
With B6 the EC50 was 0.474 nM and 0.458 nM.
Work on B7 yielded an EC50 of 0.433 nM.
Work on B16 yielded an EC50 of 0.47 nM.

The binders below were run against T1, TauC3 (C-terminally truncated tau …) (assay: Biacore off-rate ranking, TauC3 amine-coupled on CM5, one antibody concentration; one-phase exponential decay fit).
Method: as §1
B2 showed a koff of 0.000882 s⁻¹.
Binder B3 has a koff of 0.00062 s⁻¹.
With B4 the koff was 0.000843 s⁻¹.
B5 showed a koff of 0.000453 s⁻¹.
Work on B6 yielded a koff of 0.00181 s⁻¹.
B7 gave a koff of 0.00136 s⁻¹.
For B1, the koff was 0.000264 s⁻¹.

Molecular target: T1, TauC3 (C-terminally truncated tau …)
Test: binding ELISA on coated TauC3, OD650
Remark: another data set of the same source
Procedure, shortened: as §2
Binder B17 has an EC50 of 1.09 nM.
With B18 the EC50 was 0.59 nM.
Work on B19 yielded an EC50 of 1.08 nM.
B20 was tested, and the EC50 was 0.765 nM.
B21 was tested, and the EC50 was 2.56 nM.

Molecular target: T1, TauC3 (C-terminally truncated tau …)
Test: binding ELISA on coated TauC3, OD650
Remark: another data set of the same source
Procedure, shortened: as §2
B22 gave an EC50 of 3.04 nM.
For B23, the EC50 was 0.786 nM.
With B24 the EC50 was 0.807 nM.
B25 was tested, and the EC50 was 0.915 nM.
With B26 the EC50 was 0.761 nM.
B27 gave an EC50 of 0.705 nM.
B28 gave an EC50 of 0.811 nM.

What follows are binders tested against T1, TauC3 (C-terminally truncated tau …) (assay: Biacore kinetics, TauC3 amine-coupled on CM5, antibody series, 1:1 global fit).
From the text: To determine the affinity of the binding interactions, a biacore kinetic assay was developed which involved immobilizing TauC3 on a CM5 chip via amine coupling and injecting a concentration series of the respective antibody over it.
With B1 the koff was 0.0181 s⁻¹.

Molecular target: T1, TauC3 (C-terminally truncated tau …)
Test: binding ELISA on coated TauC3, OD650
Remark: another data set of the same source
Procedure, shortened: as §2
Binder B8 has an EC50 of 0.741 nM.
Binder B29 has an EC50 of 2.02 nM.
For B30, the EC50 was 2.25 nM.
B31 gave an EC50 of 1.03 nM.
With B9 the EC50 was 1.24 nM.
Binder B10 has an EC50 of 0.98 nM.
For B11, the EC50 was 1.01 nM.
